Results on 19 molecules are retold here after patent US9937235B2, “Lipidated peptides as anti-obesity agents” (USTAV ORGANICKE CHEMIE A BIOCHEMIE AKADEMIE VED CR, V.V.I, priority 2012, dated 2018).

Where no end group is shown, it is not given here. [ ]: non-standard residue; d: D form. The star is where a group is joined. Phe(F5) = N[C@@H](Cc1c(F)c(F)c(F)c(F)c1F)C(=O)O; Stearoyl = CCCCCCCCCCCCCCCCCC(=O)*; Palmitoyl = CCCCCCCCCCCCCCCC(=O)*; Myristoyl = CCCCCCCCCCCCCC(=O)*; PheCl2 = dichlorophenylalanine; Lauroyl = CCCCCCCCCCCC(=O)*; PheNO2 = nitrophenylalanine; Decanoyl = CCCCCCCCCC(=O)*; Nle = CCCC[C@H](N)C(=O)O; Octanoyl = CCCCCCCC(=O)*; Sar = CNCC(=O)O

In assay [1] the target is T1, rat PrRP receptor in RC-4B/C cells (rat, UniProt Q64121 1-370).
T1 construct: whole, on cells; also called the rat receptor; GPR10
T1 sequence (looked up): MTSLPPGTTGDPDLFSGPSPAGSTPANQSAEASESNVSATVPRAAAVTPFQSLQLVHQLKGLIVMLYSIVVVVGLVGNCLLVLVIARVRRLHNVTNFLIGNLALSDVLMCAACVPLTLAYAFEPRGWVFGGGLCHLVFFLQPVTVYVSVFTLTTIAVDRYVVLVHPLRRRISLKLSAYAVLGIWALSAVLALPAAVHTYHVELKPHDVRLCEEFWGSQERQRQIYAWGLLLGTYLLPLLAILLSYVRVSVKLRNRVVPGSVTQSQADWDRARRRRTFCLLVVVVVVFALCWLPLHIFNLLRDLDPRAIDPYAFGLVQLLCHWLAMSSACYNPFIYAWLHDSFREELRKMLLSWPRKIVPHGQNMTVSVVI
Briefly: competition with 125I-rat PrRP31 on RC-4B/C cells. How it is done:
The rat pituitary cell line RC-4B/C (ATCC, Manassas, USA) was grown on 24-well plates which had their bottom coated with polyethyleneimine. The cells were grown to the optimal density of 300-450 thousand per well.
(§1) Plates were incubated for 60 minutes at room temperature. After incubation, the cells were solubilized in 0.1 mol/l solution of NaOH and the radioactivity bound to the cells was counted using a γ-counter. The experiments were performed in duplicate and repeated at least three times.
For evaluation of competitive binding experiments, the program Graph Pad Prism Software (San Diego, Calif., USA) was used. A method of nonlinear regression assuming one-site binding was used.

Assay [2] deals with T2, human PrRP receptor, GPR10, transfected in CHO cells (human, UniProt P49683 1-370).
T2 construct: whole, on cells; also called human GPR10 receptor; the human receptor GPR10 in CHO cells
T2 sequence (looked up): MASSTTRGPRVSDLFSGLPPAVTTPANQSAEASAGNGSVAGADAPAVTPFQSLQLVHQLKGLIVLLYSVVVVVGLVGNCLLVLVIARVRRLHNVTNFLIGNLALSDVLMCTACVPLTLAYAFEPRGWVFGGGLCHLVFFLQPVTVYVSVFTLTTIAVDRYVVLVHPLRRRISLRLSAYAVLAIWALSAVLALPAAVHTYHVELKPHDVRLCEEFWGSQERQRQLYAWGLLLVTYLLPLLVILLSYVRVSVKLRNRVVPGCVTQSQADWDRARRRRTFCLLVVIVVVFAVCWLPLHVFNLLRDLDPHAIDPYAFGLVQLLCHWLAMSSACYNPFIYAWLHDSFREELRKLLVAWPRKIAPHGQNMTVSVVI
Put plainly: competition with 125I-human PrRP31 on CHO cells with transfected human GPR10. As for the experimental part:
CHO cells with transfected human PrRP receptor, GPR10 (Perkin Elmer, USA) were grown on 24-well plates coated with polyethyleneimine. The cells were grown to the optimal density of 40-80 thousand cells per well.
as §1

Usually Ki stands for a dissociation constant, usually derived from enzyme kinetics or from competition with a known ligand. On to Decanoyl-SRAHQHS[Nle]ETRTPDINPAWYTGRGIRPVGRF-NH2 [analog no. 16], for which the inhibitory constant (Ki) in assay [1] is 0.65 nM; in assay [2] it was 1.46 nM.
For Stearoyl-SRAHQHS[Nle]ETRTPDINPAWYTGRGIRPVGRF-NH2 [analog no. 20], the Ki in assay [1] stood at 0.96 nM; in assay [2], 5.39 nM.
Taken in the same sequence, the figures for Palmitoyl-SRAHQHS[Nle]ETRTPDINPAWYTGRGIRPVGR[PheCl2]-NH2 [analog no. 26] were 1.3 nM and 1.05 nM.
In the case of Myristoyl-SRAHQHS[Nle]ETRTPDINPAWYTGRGIRPVGR[PheNO2]-NH2 [analog no. 28], the values for the Ki in assay [1] and in assay [2] were 1.97 nM and 1.59 nM, respectively.
The like results for SRAHQHS[Nle]ETRTPDINPAWYTGRGIRPVGR[PheCl2]-NH2 [analog no. 24] were, in that order, 3.84 nM and 2.27 nM.
Regarding SRAHQHS[Nle]ETRTPDINPAWYTGRGIRPVGR[PheNO2]-NH2 [analog no. 27], the figures for the Ki in assay [1] and in assay [2] were 19.9 nM and 4.8 nM, respectively.
Taken in the same sequence, the figures for Myristoyl-SRAHQHS[Nle]ETRTPDINPAWYTGRGIRPVGR[PheCl2]-NH2 [analog no. 25] were 1.79 nM and 0.95 nM.

B1: analog no. 38 (peptide)
peptide: TPDINPAWYTGR[Sar]IRPVGRF-NH2
modifications: N-terminus assumed
SMILES: CC[C@H](C)[C@H](NC(=O)CN(C)C(=O)[C@H](CCCNC(=N)N)NC(=O)CNC(=O)[C@@H](NC(=O)[C@H](Cc1ccc(O)cc1)NC(=O)[C@H](Cc1c[nH]c2ccccc12)NC(=O)[C@H](C)NC(=O)[C@@H]1CCCN1C(=O)[C@H](CC(N)=O)NC(=O)[C@@H](NC(=O)[C@H](CC(=O)O)NC(=O)[C@@H]1CCCN1C(=O)[C@@H](N)[C@@H](C)O)[C@@H](C)CC)[C@@H](C)O)C(=O)N[C@@H](CCCNC(=N)N)C(=O)N1CCC[C@H]1C(=O)N[C@H](C(=O)NCC(=O)N[C@@H](CCCNC(=N)N)C(=O)N[C@@H](Cc1ccccc1)C(N)=O)C(C)C
With B1, the figures for the Ki in assay [1] and in assay [2] were 7.94 nM and 4.51 nM, respectively.
The like results for Palmitoyl-SRAHQHS[Nle]ETRTPDINPAWYTGRGIRPVGRF-NH2 [analog no. 19] were, in that order, 0.51 nM and 3.03 nM.
Palmitoyl-SRAHQHS[Nle]ETRTPDINPAWYTGRGIRPVGR[PheNO2]-NH2 [analog no. 29]: the Ki is 0.58 nM in assay [1] and 0.77 nM in assay [2].
The like results for SRAHQHS[Nle]ETRTPDINPAWYTGRGIRPVGR[Phe(F5)]-NH2 [analog no. 32] were, in that order, 9.69 nM and 8.59 nM.

B2: analog no. 34 (peptide)
peptide: SRAHQHS[Nle]ETRTPDINPAWYTGRGIRPVGRY-NH2
modifications: N-terminus assumed
SMILES: CCCC[C@H](NC(=O)[C@H](CO)NC(=O)[C@H](Cc1c[nH]cn1)NC(=O)[C@H](CCC(N)=O)NC(=O)[C@H](Cc1c[nH]cn1)NC(=O)[C@H](C)NC(=O)[C@H](CCCNC(=N)N)NC(=O)[C@@H](N)CO)C(=O)N[C@@H](CCC(=O)O)C(=O)N[C@H](C(=O)N[C@@H](CCCNC(=N)N)C(=O)N[C@H](C(=O)N1CCC[C@H]1C(=O)N[C@@H](CC(=O)O)C(=O)N[C@H](C(=O)N[C@@H](CC(N)=O)C(=O)N1CCC[C@H]1C(=O)N[C@@H](C)C(=O)N[C@@H](Cc1c[nH]c2ccccc12)C(=O)N[C@@H](Cc1ccc(O)cc1)C(=O)N[C@H](C(=O)NCC(=O)N[C@@H](CCCNC(=N)N)C(=O)NCC(=O)N[C@H](C(=O)N[C@@H](CCCNC(=N)N)C(=O)N1CCC[C@H]1C(=O)N[C@H](C(=O)NCC(=O)N[C@@H](CCCNC(=N)N)C(=O)N[C@@H](Cc1ccc(O)cc1)C(N)=O)C(C)C)[C@@H](C)CC)[C@@H](C)O)[C@@H](C)CC)[C@@H](C)O)[C@@H](C)O
notes: Tyr at position 31 in place of Phe
Turning to B2, the Ki in assay [1] came to 3.25 nM; in assay [2], 2.02 nM.

B3: analog no. 35 (peptide)
peptide: Palmitoyl-SRAHQHS[Nle]ETRTPDINPAWYTGRGIRPVGRY-NH2
SMILES: CCCCCCCCCCCCCCCC(=O)N[C@@H](CO)C(=O)N[C@@H](CCCNC(=N)N)C(=O)N[C@@H](C)C(=O)N[C@@H](Cc1c[nH]cn1)C(=O)N[C@@H](CCC(N)=O)C(=O)N[C@@H](Cc1c[nH]cn1)C(=O)N[C@@H](CO)C(=O)N[C@@H](CCCC)C(=O)N[C@@H](CCC(=O)O)C(=O)N[C@H](C(=O)N[C@@H](CCCNC(=N)N)C(=O)N[C@H](C(=O)N1CCC[C@H]1C(=O)N[C@@H](CC(=O)O)C(=O)N[C@H](C(=O)N[C@@H](CC(N)=O)C(=O)N1CCC[C@H]1C(=O)N[C@@H](C)C(=O)N[C@@H](Cc1c[nH]c2ccccc12)C(=O)N[C@@H](Cc1ccc(O)cc1)C(=O)N[C@H](C(=O)NCC(=O)N[C@@H](CCCNC(=N)N)C(=O)NCC(=O)N[C@H](C(=O)N[C@@H](CCCNC(=N)N)C(=O)N1CCC[C@H]1C(=O)N[C@H](C(=O)NCC(=O)N[C@@H](CCCNC(=N)N)C(=O)N[C@@H](Cc1ccc(O)cc1)C(N)=O)C(C)C)[C@@H](C)CC)[C@@H](C)O)[C@@H](C)CC)[C@@H](C)O)[C@@H](C)O
notes: as for B2
Regarding B3, the results for the Ki in assay [1] and in assay [2] were 0.44 nM and 1.57 nM, respectively.
The like results for Myristoyl-SRAHQHS[Nle]ETRTPDINPAWYTGRGIRPVGRF-NH2 [analog no. 18] were, in that order, 0.69 nM and 0.71 nM.
Taken in the same sequence, the figures for Palmitoyl-SRAHQHS[Nle]ETRTPDINPAWYTGRGIRPVGR[Phe(F5)]-NH2 [analog no. 33] were 0.51 nM and 1.92 nM.
The like results for Octanoyl-SRAHQHS[Nle]ETRTPDINPAWYTGRGIRPVGRF-NH2 [analog no. 15] were, in that order, 0.98 nM and 1.53 nM.
As to Lauroyl-SRAHQHS[Nle]ETRTPDINPAWYTGRGIRPVGRF-NH2 [analog no. 17], the results for the Ki in assay [1] and in assay [2] were 0.39 nM and 1.19 nM, respectively.
Consider [code f][code r]GVPRIGRGTYWAPNIDPT-NH2 [analog no. 36], for which the Ki turned out to be 5200 nM in assay [1] and 6290 nM in assay [2].
The like results for Myristoyl-SHQRPADTHWYPRG[Nle]FPTIGRITARNGEVSR (printed without a C-terminal amide) [analog no. 31] were, in that order, 123 nM and 262 nM.
